# Assay results reported in IntAct's records for PubMed 24115911.
# B1: Urease accessory protein UreF (Helicobacter pylori), Q09065 (parent)
# chain: MDKGKSVKSTEKSVGMPPKTPKTDNNAHVDNEFLILQVNDAVFPIGSYTHSFGLETYIQQKKVTNKESALEYLKANLSSQFLYTEMLSLKLTYESALQQDLKKILGVEEVIMLSTSPMELRLANQKLGNRFIKTLQAMNELDMGEFFNAYAQKTKDPTHATSYGVFAASLGIELKKALRHYLYAQTSNMVINCVKSVPLSQNDGQKILLSLQSPFNQLIEKTLELDESHLCTASVQNDIKAMQHESLYSRLYMS
# Variants of: B1
# Details: with ureg_helpy ureG
row,Variant,effect of a mutation on the interaction
1,MDKGKSVKSTEKSVGMPPKTPKTDNNAHVDNEFLILQVNDAVFPIGSYTHSFGLETYIQQKKVTNKESALEYLKANLSSQFLYTEMLSLKLTYESALQQDLKKILGVEEVIMLSTSPMELRLANQKLGNRFIKTLQAMNELDMGEFFNAYAQKTKDPTHATSYGVFAASLGIELKKALAHYLDAQTSNMVINCVKSVPLSQNDGQKILLSLQSPFNQLIEKTLELDESHLCTASVQNDIKAMQHESLYSRLYMS [R179A;Y183D],disrupting interaction strength
